Experimental data as given in article PMC11976907 (Nature Communications, 2025).

Target: T1, human TEX10 (43-929), His6-MBP fusion (human, UniProt Q9NXF1 43-929)
T1 sequence (looked up): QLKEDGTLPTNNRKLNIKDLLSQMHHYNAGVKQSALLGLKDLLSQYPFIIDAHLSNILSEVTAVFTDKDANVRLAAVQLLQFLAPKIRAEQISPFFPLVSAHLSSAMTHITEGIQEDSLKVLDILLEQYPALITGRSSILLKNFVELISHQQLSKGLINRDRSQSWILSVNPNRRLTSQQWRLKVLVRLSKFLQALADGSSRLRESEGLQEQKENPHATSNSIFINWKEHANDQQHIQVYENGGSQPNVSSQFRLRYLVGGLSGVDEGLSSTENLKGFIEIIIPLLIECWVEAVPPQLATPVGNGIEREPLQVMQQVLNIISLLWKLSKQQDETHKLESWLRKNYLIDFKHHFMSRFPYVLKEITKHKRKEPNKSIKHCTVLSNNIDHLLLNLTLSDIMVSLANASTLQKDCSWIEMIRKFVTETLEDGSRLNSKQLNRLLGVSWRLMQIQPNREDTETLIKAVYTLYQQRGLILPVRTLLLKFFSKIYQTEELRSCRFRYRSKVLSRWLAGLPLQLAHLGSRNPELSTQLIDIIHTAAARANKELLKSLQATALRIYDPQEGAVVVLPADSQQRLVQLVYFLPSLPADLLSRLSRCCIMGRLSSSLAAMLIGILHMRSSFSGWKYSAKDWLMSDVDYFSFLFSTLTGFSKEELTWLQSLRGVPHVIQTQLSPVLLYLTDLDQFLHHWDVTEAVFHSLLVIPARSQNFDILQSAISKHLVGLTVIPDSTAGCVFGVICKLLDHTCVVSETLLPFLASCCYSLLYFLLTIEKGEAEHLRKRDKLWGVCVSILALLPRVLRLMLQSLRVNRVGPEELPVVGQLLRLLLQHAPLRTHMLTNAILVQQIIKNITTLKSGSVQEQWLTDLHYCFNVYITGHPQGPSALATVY
Assay: cryo-EM structure

binding result: binds
B1: human PELP1 (residues 1-642, Rix1 domain) (domain or fragment)
chain: not shown
